Experimental data taken from US20070009927A1 (published 2007).

Target: T1, Sizn1 bait (full-length Sizn1 coding sequence in pGBKT7) (mouse, UniProt Q9CZA5 1-402)
T1 construct: Yeast two-hybrid bait in AH109 cells; also called Sizn bait construct; Sizn1 as a bait; not shown: fusion partner supplied by vector pGBKT7 (Clontech)
Assay: yeast two-hybrid screen of an E11 mouse library

T1 sequence (Q9CZA5 whole entry, the tested form may be a part): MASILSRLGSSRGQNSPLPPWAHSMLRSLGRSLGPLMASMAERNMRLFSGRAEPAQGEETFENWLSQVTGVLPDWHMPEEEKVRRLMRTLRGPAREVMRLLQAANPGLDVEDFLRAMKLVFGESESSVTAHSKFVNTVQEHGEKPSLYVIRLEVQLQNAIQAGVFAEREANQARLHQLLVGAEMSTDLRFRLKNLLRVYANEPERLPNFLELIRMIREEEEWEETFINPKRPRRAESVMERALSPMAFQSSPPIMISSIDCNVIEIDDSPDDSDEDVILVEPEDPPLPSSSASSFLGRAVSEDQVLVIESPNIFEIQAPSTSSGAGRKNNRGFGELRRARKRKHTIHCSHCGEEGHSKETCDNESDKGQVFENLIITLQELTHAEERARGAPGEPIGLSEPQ

binding result: binds
B1: amino acids 382-495 of Smad6 corresponding to the MH2 domain of Smad6 (other, mouse, UniProt O35182 382-495, looked up)
chain: RRTRSKIGFGILLSKEPDGVWAYNRGEHPIFVNSPTLDAPGGRALVVRKVPPGYSIKVFDFERSGLLQHADAAHGPYDPHSVRISFAKGWGPCYSRQFITSCPCWLEILLNNHR
notes: Positive prey clone of the yeast two-hybrid screen; also called Smad6 MH2 domain; not shown: library fusion partner of the Matchmaker3 two-hybrid prey vector; not described
